B1: NcLPMO9C (Neurospora crassa OR74A) (protein)
chain: HTIFQKVSVNGADQGQLKGIRAPANNNPVTDVMSSDIICNAVTMKDSNVLTVPAGAKVGHFWGHEIGGAAGPNDADNPIAASHKGPIMVYLAKVDNAATTGTSGLKWFKVAEAGLSNGKWAVDDLIANNGWSYFDMPTCIAPGQYLMRAELIALHNAGSQAGAQFYIGCAQINVTGGGSASPSNTVSFPGAYSASDPGILINIYGGSGKTDNGGKPYQIPGPALFTCPAGGSGGSSPAPATTASTPKPTSASAPKPVSTTASTPKPTNGSGSGTGAAHSTKCGGSKPAATTKASNPQPTNGGNSAVRAAALYGQCGGKGWTGPTSCASGTCKFSNDWYSQCLP
notes: wild type with 79-residue linker and CBM1, C4-oxidizing; Pichia pastoris X33, N-glycosylated, Ni-NTA, copper-saturated
B2: AoLPMO9B (Aspergillus oryzae RIB40) (protein)
chain: HGHVSNIVINGVYYEGFDINSFPYMGESAPTVAAWTTPNTGNGPLAPDDYSSPDIICHQNATAGKGYVEVNAGDRISLQWTPWPESHHGPVVDYLARCEPNCASVDKTSLEFFKIDGVGIVDGSSVPGVWGDDQLIQNNNTWLVEIPKSIAPGYYVLRHELIALHSAGTEGGAQNYPSCFNLKVNGEGTDKPAGVVGTELYTPTGDGIIFNIYQTVSEYPVPGPTLYSGAATGVTQAASTVTSTGTALTVGAAATTPASGSGASSSAAPSSSAAATPSSSAAPSSSAAARR
notes: wild type, C1/C4-oxidizing, no CBM1; Pichia pastoris X33, N-glycosylated, Ni-NTA, copper-saturated
B3: AoLPMO9A (Aspergillus oryzae RIB40) (protein)
chain: HGYVSGVVIDGQYYGGYLVDKYAYSDNAPDTIGWTTSATDLGFVDGTGYQSPDIICHKDGAPGALTAEVAAGGKIELQWTEWPESHHGPVLNYLAPCGGECSAVDKTTLEFFKIEAKGLIDGTTPPGQWATDDLISNNNSYTVTIPTSIQEGNYVLRHEIIGLHSAGQKDGAQNYPQCINIKVTGGGDATPAGTAGEALYKDTDAGILFDIYSDLSGGYPIPGPEVFSA
notes: as for B2

Key:
NcLPMO9C∆CBM = molecular target: T1, NcLPMO9C∆CBM (Neurospora crassa, UniProt Q7SHI8); experiment: peroxidase assay, absorbance at […] nm (coerulignone), Michaelis-Menten fit; type: biochemical; conditions: 5 mM H2O2 co-substrate; copper-saturated enzyme 1 µM; 100 mM sodium phosphate pH 6.0; 37 °C; read-out: 2,6-DMP / Km
T1 construct: gene gh61-3; Pichia pastoris X33, copper-saturated

purified protein [1] = substrate: COc1cccc(OC)c1O; experiment: purified protein; type: biochemical, Neurospora crassa; conditions: 5 mM H2O2 co-substrate, copper-saturated enzyme 1 µM, 100 mM sodium phosphate pH 6.0, 37 °C
purified protein [2] = substrate: COc1cccc(OC)c1O; experiment: purified protein; type: biochemical, Aspergillus oryzae; conditions: 5 mM H2O2 co-substrate, copper-saturated enzyme 1 µM, 100 mM sodium phosphate pH 6.0, 37 °C

| Molecule | Km (NcLPMO9C∆CBM) [µM] | Km (purified protein [1]) [µM] | kcat (purified protein [1]) [s⁻¹] | Km (purified protein [2]) [µM] | kcat (purified protein [2]) [s⁻¹] |
| --- | --- | --- | --- | --- | --- |
| COc1cccc(OC)c1O [2,6-DMP] | 1280 ± 120 | – | – | – | – |
| B1 | – | 940 ± 90 | 0.58 ± 0.02 | – | – |
| B2 | – | – | – | 1550 ± 140 | 1.33 ± 0.04 |
| B3 | – | – | – | 1760 ± 310 | 1.48 ± 0.09 |

Source: paper PMC11641334, “The Effect of CBM1 and Linker on the Oxidase, Peroxidase and Monooxygenase Activities of AA9 LPMOs: Insight into Their Correlation with the Nature of Reductants and Crystallinity of Celluloses” (International Journal of Molecular Sciences, 2024)
